# ± gives the standard deviation of the averaged measurements.
# Tested on: ATP
# Assay: switch fluorescence ratio, 500 uM ATP over buffer (Cy3 cluster intensity, sum of 5 cycles each) (fold (ratio)); higher = stronger signal-on switching upon ATP binding; sequences stand for … in TCGTCGGCAGCGTCAGATGTGTATAAGAGACAGTTTTTTTTTTTTTTTTTTTTTTTTT…TC
# Conditions: aptamer strand: ATP DNA aptamer (quencher-CACCTGGGGGAGTATTGCGGAGGAAGG + anchor), 100 nM annealed; ATP concentration: 500 uM
# Method in brief: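 Per cluster, summed Cy3 intensity from the target cycles was divided by that from the buffer cycles to give the fluorescence ratio, then averaged per switch-domain sequence. Clusters outside 100-1000 RFU were excluded. The Cy3-labelled switching-strand clusters, on a modified Illumina MiSeq flow-cell, were annealed to 100 nM quencher-labelled ATP aptamer and imaged in selection buffer, then after 15 min with 500 uM ATP at 22 °C, for five cycles with NaOH stripping and re-annealing between them.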
# 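Also: ATP exposure 15 min at 22 °C before imaging.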
row,Sequence,switch fluorescence ratio
1,TTTCGATTGC,1.004 ± 0.01
2,TTTCGATTTG,1.02 ± 0.012
3,TTTCGCAGAA,1.1 ± 0.1
4,TTTCGCCATG,0.995 ± 0.026
5,TTTCGCGACA,1.34 ± 0.5
6,TTTCGCGGGT,1.05 ± 0.067
7,TTTCGCTATG,1.04 ± 0.024
8,TTTCGCTCGC,1.13 ± 0.02
9,TTTCGCTCTT,1.12 ± 0.25
10,TTTCGGAAGC,1.005 ± 0.0015
11,TTTCGGACAA,1.46 ± 0.5
12,TTTCGGGCGC,1.05 ± 0.047
13,TTTCGTAAGA,0.995 ± 0.016
14,TTTCGTAGAG,1 ± 0.011
15,TTTCGTAGGT,1.02 ± 0.022
16,TTTCGTCGGC,1.048 ± 0.0018
17,TTTCGTGACT,1.02 ± 0.035
18,TTTCGTGGAC,1.08 ± 0.015
19,TTTCGTGGTG,0.997 ± 0.031
20,TTTCGTTTAC,1.272 ± 0.0071
21,TTTCGTTTGG,0.981 ± 0.042
22,TTTCGTTTTC,1.08 ± 0.1
23,TTTCGTTTTG,0.998 ± 0.016
24,TTTCGTTTTT,0.991 ± 0.038
25,TTTCTAATAT,1 ± 0.014

row,Sequence,switch fluorescence ratio
1,TTTCTACGCG,1.01 ± 0.034
2,TTTCTAGGTC,1.015 ± 0.0048
3,TTTCTAGTGA,0.991 ± 0.047
4,TTTCTATGGG,1.03 ± 0.033
5,TTTCTCAGTA,1.03 ± 0.041
6,TTTCTCAGTC,1 ± 0.039
7,TTTCTCCCTT,1.19 ± 0.13
8,TTTCTCCGTT,1.44 ± 0.55
9,TTTCTCGAAT,1 ± 0.029
10,TTTCTCGTCG,1 ± 0.014
11,TTTCTCGTCT,0.988 ± 0.011
12,TTTCTCGTTC,1.15 ± 0.21
13,TTTCTCTGGT,0.993 ± 0.045
14,TTTCTGGCTG,1.025 ± 0.0043
15,TTTCTGTGAT,1.004 ± 0.003
16,TTTCTGTTTG,1.01 ± 0.05
17,TTTCTTGGGG,0.979 ± 0.018
18,TTTCTTGTAT,1.02 ± 0.016
19,TTTCTTGTCA,0.996 ± 0.059
20,TTTCTTTAAG,0.985 ± 0.04
21,TTTCTTTCGT,1.12 ± 0.16
22,TTTGAAAATG,1.01 ± 0.035
23,TTTGAAAGGA,1.01 ± 0.032
24,TTTGAACGTG,0.969 ± 0.017
25,TTTGAACTTT,0.991 ± 0.033

row,Sequence,switch fluorescence ratio
1,TTTGAAGAAA,1.06 ± 0.033
2,TTTGAAGAGT,1.04 ± 0.017
3,TTTGAAGGAC,0.992 ± 0.044
4,TTTGAAGGGA,0.996 ± 0.042
5,TTTGAAGTGT,0.997 ± 0.02
6,TTTGAATCG,1.01 ± 0.021
7,TTTGAATTCA,1.19 ± 0.22
8,TTTGACAGTG,0.966 ± 0.071
9,TTTGACCAGG,1.02 ± 0.045
10,TTTGACCGTT,0.988 ± 0.035
11,TTTGACGG,0.972 ± 0.023
12,TTTGACGGAA,1.27 ± 0.28
13,TTTGACGTTT,1.02 ± 0.059
14,TTTGACTGGT,0.984 ± 0.027
15,TTTGACTTGA,0.984 ± 0.048
16,TTTGAGAAGA,1.02 ± 0.012
17,TTTGAGACAG,0.994 ± 0.026
18,TTTGAGAGTA,0.96 ± 0.028
19,TTTGAGCATT,1.04 ± 0.043
20,TTTGAGCCCC,1.04 ± 0.1
21,TTTGAGGCAT,1.71 ± 1.2
22,TTTGAGTCAG,0.994 ± 0.035
23,TTTGAGTCTT,1 ± 0.039
24,TTTGATACCC,0.991 ± 0.064
25,TTTGATACTC,1.15 ± 0.091

row,Sequence,switch fluorescence ratio
1,TTTGATACTG,1.06 ± 0.11
2,TTTGATAGTC,0.966 ± 0.07
3,TTTGATATGT,0.996 ± 0.039
4,TTTGATCTT,0.974 ± 0.03
5,TTTGATGCAG,0.993 ± 0.032
6,TTTGATGTGT,0.997 ± 0.032
7,TTTGCAATGT,1.29 ± 0.1
8,TTTGCAGCTT,1.49 ± 0.87
9,TTTGCATGCC,1.05 ± 0.085
10,TTTGCATTGT,1.03 ± 0.035
11,TTTGCCCCGG,1.12 ± 0.12
12,TTTGCCGGAG,1.08 ± 0.065
13,TTTGCCTCCG,2.15 ± 1.7
14,TTTGCCTCGG,0.984 ± 0.031
15,TTTGCGG,1.009 ± 0.0082
16,TTTGCGGGTG,1.6 ± 0.91
17,TTTGCGTTTT,1.01 ± 0.025
18,TTTGCTGGGA,0.9812 ± 0.0098
19,TTTGCTGGTT,1.02 ± 0.071
20,TTTGCTTAAC,1.07 ± 0.13
21,TTTGGAAA,1.01 ± 0.033
22,TTTGGAAATG,1.0077 ± 0.00015
23,TTTGGAAGGG,1 ± 0.026
24,TTTGGACCGA,1.03 ± 0.016
25,TTTGGACGCT,1.04 ± 0.038

row,Sequence,switch fluorescence ratio
1,TTTGGAGAAT,1.02 ± 0.025
2,TTTGGAGAGA,1.001 ± 0.01
3,TTTGGAGATG,1.02 ± 0.023
4,TTTGGAGCTT,4.01 ± 2.7
5,TTTGGAGGAG,0.997 ± 0.048
6,TTTGGAGTCT,0.982 ± 0.031
7,TTTGGAGTTG,0.987 ± 0.064
8,TTTGGATAGA,0.998 ± 0.025
9,TTTGGATCCT,1.02 ± 0.019
10,TTTGGATTCC,0.998 ± 0.034
11,TTTGGCCGCT,0.985 ± 0.011
12,TTTGGCGAGT,1.01 ± 0.021
13,TTTGGCGCGA,1.43 ± 0.58
14,TTTGGCTAAG,0.976 ± 0.027
15,TTTGGCTGAG,1.004 ± 0.009
16,TTTGGCTTCG,1.042 ± 0.0038
17,TTTGGCTTCT,1.04 ± 0.073
18,TTTGGCTTTA,0.977 ± 0.017
19,TTTGGGACAT,1.01 ± 0.025
20,TTTGGGAGAT,0.951 ± 0.023
21,TTTGGGATAG,1.01 ± 0.049
22,TTTGGGATCA,0.9846 ± 0.0073
23,TTTGGGATTC,0.979 ± 0.028
24,TTTGGGCACG,1.05 ± 0.017
25,TTTGGGCAGT,1 ± 0.017

row,Sequence,switch fluorescence ratio
1,TTTGGGCATT,1.04 ± 0.035
2,TTTGGGCCTG,1.001 ± 0.0022
3,TTTGGGCTGC,1.28 ± 0.41
4,TTTGGGCTGG,1.01 ± 0.06
5,TTTGGGGAAC,1.02 ± 0.035
6,TTTGGGGATG,1 ± 0.033
7,TTTGGGGCCC,1.03 ± 0.041
8,TTTGGGGCCT,1.06 ± 0.15
9,TTTGGGGCTG,1.04 ± 0.11
10,TTTGGGGGAC,0.984 ± 0.05
11,TTTGGGGGCT,1.01 ± 0.04
12,TTTGGGGTT,1.02 ± 0.018
13,TTTGGGGTTA,0.996 ± 0.034
14,TTTGGGTCTG,0.992 ± 0.026
15,TTTGGGTGGC,1.03 ± 0.036
16,TTTGGGTTGA,1.03 ± 0.017
17,TTTGGTACAC,1.01 ± 0.021
18,TTTGGTCTCA,1 ± 0.02
19,TTTGGTGGTC,0.971 ± 0.022
20,TTTGGTTAC,1.05 ± 0.023
21,TTTGGTTACA,1.01 ± 0.04
22,TTTGGTTCGC,0.971 ± 0.037
23,TTTGGTTGAT,0.9967 ± 0.0087
24,TTTGGTTGCC,1.05 ± 0.085
25,TTTGGTTTTT,0.999 ± 0.031

row,Sequence,switch fluorescence ratio
1,TTTGTAAATA,1.008 ± 0.0069
2,TTTGTAAGAA,1.009 ± 0.006
3,TTTGTACCCT,1.064 ± 0.0021
4,TTTGTAGGGG,0.981 ± 0.016
5,TTTGTATCAT,1.017 ± 0.0076
6,TTTGTATGTT,0.991 ± 0.051
7,TTTGTATTCA,1.01 ± 0.06
8,TTTGTCAGGG,0.992 ± 0.062
9,TTTGTCCAGT,0.991 ± 0.041
10,TTTGTCGTCG,1.004 ± 0.01
11,TTTGTCTATA,1 ± 0.017
12,TTTGTCTGGA,0.991 ± 0.032
13,TTTGTGACTA,1.01 ± 0.049
14,TTTGTGCCTC,0.9528 ± 0.0093
15,TTTGTGGATT,1.06 ± 0.069
16,TTTGTGTATG,0.9701 ± 0.0032
17,TTTGTGTTGG,0.993 ± 0.027
18,TTTGTTAGTG,0.972 ± 0.021
19,TTTGTTCTGT,1.01 ± 0.018
20,TTTGTTGATT,0.973 ± 0.022
21,TTTGTTGCCA,0.988 ± 0.0019
22,TTTGTTGCTC,1 ± 0.03
23,TTTGTTGGGA,1.02 ± 0.013
24,TTTGTTGTAA,1.01 ± 0.034
25,TTTGTTGTCA,0.974 ± 0.016

row,Sequence,switch fluorescence ratio
1,TTTGTTGTGT,1.02 ± 0.025
2,TTTGTTGTTG,0.984 ± 0.03
3,TTTGTTTCCA,0.962 ± 0.012
4,TTTGTTTTA,1.01 ± 0.019
5,TTTGTTTTCA,0.989 ± 0.034
6,TTTGTTTTGA,1.02 ± 0.027
7,TTTTAAAAAC,1.05 ± 0.049
8,TTTTAAAACA,1.02 ± 0.029
9,TTTTAAAAGA,0.995 ± 0.027
10,TTTTAAAATG,1.01 ± 0.032
11,TTTTAAATAA,1.01 ± 0.026
12,TTTTAAATGT,1.04 ± 0.029
13,TTTTAAATTG,0.964 ± 0.023
14,TTTTAACATT,1.06 ± 0.081
15,TTTTAACTCG,1.01 ± 0.023
16,TTTTAAGAAT,1.005 ± 0.0078
17,TTTTAAGCAG,1.05 ± 0.036
18,TTTTAAGCCC,1.03 ± 0.046
19,TTTTAAGCGG,0.999 ± 0.015
20,TTTTAATATT,1.05 ± 0.11
21,TTTTAATCAT,1.6 ± 0.88
22,TTTTAATTCG,1.057 ± 0.0035
23,TTTTAATTT,0.997 ± 0.042
24,TTTTAATTTT,0.998 ± 0.029
25,TTTTACAAGG,0.983 ± 0.031

# From the supplement of paper PMC10126150
